Drawing on patent US20260265385A1 (ANAPTYSBIO, published 2026), this text covers Kd for 18 molecules.

In test [1] the target is T1, recombinant cynomolgus IL-2Rβ (extracellular domain, Ala1-Thr215) (cynomolgus, UniProt Q38J85 27-240).
T1 construct: extracellular domain; Analyte in SPR; also called cynomolgus LL-2Rβ; Cyno IL-2RB
T1 sequence (looked up): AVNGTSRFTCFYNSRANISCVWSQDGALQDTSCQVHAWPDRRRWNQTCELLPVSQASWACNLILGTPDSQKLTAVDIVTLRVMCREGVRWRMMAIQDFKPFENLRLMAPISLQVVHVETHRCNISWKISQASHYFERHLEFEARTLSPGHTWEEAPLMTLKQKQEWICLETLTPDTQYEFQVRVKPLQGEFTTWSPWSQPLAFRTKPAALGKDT
The experiment in a line: SPR, antibody captured on Protein A chip. The method, boiled down:
(§1)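 Antibodies captured on a Protein A chip (0.5 μg/mL, 60 s), then exposed to IL-2Rβ extracellular domain (Ala1-Thr215) at about 0.4–11 nM; 300 s association, 1200 s dissociation. On- and off-rates and KD from a global 1:1 binding fit.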

In test [2] the target is T2, recombinant human IL-2Rβ (extracellular domain, Ala1-Thr215) (human, UniProt P14784 27-240).
T2 construct: extracellular domain; Analyte in SPR; Ala1-Thr215 is counted on the mature protein; also called human LL-2Rβ; Human IL-2RB
T2 sequence (looked up): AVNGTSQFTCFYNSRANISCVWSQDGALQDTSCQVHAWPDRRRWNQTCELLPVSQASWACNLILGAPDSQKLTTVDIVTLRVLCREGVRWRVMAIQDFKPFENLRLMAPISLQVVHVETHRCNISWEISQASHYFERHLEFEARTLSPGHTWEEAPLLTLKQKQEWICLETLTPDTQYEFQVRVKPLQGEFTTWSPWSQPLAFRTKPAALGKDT
The experiment in a line: SPR, antibody captured on Protein A chip. The method, boiled down: as §1

B1: APE15055 (antibody, V domains shown)
VH: EVQLVQSGAEVKKPGATVKISCKVSGFNFKDSLMHWVQQAPGKGLEWMGWIDSENGETEYAPGFQDRVTITADTSTDTAYMELSSLRSEDTAVYYCARGGPWFLSYWGQGTTVTVSS
VL: EIVMTQSPATLSVSPGERATLSCRASQIISNNLHWYQQKPGQAPRLLIIYGLQSISGIPARFSGSRSGTEFTLTISSLQSEDFAVYFCQQSNNYPWTFGQGTKLEIKR
notes: M10-1275 series
Consider B1, for which the Kd in test [1] came to 83.8 pM; in test [2], 369 pM.

B2: APE15167 (antibody, V domains shown)
VH: EVQLVQSGAEVKKPGATVKISCKVSGFNFKESLMHWVQQAPGKGLEWMGWIDVEAGETEYAPGFQDRVTITADTSTDTAYMELSSLRSEDTAVYYCARGGPWFLSYWGQGTTVTVSS
VL: EIVMTQSPATLSVSPGERATLSCRASQIISNNLHWYQQKPGQAPRLLIIYGLQSISGIPARFSGSRSGTEFTLTISSLQSEDFAVYYCQQSNNWPWTFGQGTKLEIKR
notes: M10-1275 series
For B2, the Kd in test [1] was determined as 6.55 pM; in test [2], 45 pM.

B3: APE15136 (antibody, V domains shown)
VH: EVQLVQSGAEVKKPGATVKISCKVSGFNFKESLMHWVQQAPGKGLEWMGWIDSENGETEYAPGFQDRVTITADTSTDTAYMELSSLRSEDTAVYYCARGGPWFLSYWGQGTTVTVSS
VL: EIVMTQSPATLSVSPGERATLSCRASQIISNNLHWYQQKPGQAPRLLIIYGLQSISGIPARFSGSRSGTEFTLTISSLQSEDFAVYYCQQSNNWPWTFGQGTKLEIKR
notes: M10-1275 series
In the case of B3, the Kd in test [1] is 11.4 pM; in test [2], 48.1 pM.

B4: APE15059 (antibody, V domains shown)
VH: EVQLVQSGAEVKKPGATVKISCKVSGFNFKDSLMHWVQQAPGKGLEWMGWIDSENGETEYAPGFQDRVTITADTSTDTAYMELSSLRSEDTAVYYCARGGPWFLSYWGQGTTVTVSS
VL: EIVMTQSPATLSVSPGERATLSCRASQIISNNLHWYQQKPGQAPRLLIIYGLQSISGIPARFSGSRSGTEFTLTISSLQSEDFAVYYCQQSNNWPWTFGQGTKLEIKR
notes: M10-1275 series
B4: the Kd in test [1] was determined as 15.9 pM; in test [2] it was 69.7 pM.

B5: APE15145 (antibody, V domains shown)
VH: EVQLVQSGAEVKKPGATVKISCKVSGFNFKLSLMHWVQQAPGKGLEWMGWIDNEAGETEYAPGFQDRVTITADTSTDTAYMELSSLRSEDTAVYYCARGGPWFLSYWGQGTTVTVSS
VL: EIVMTQSPATLSVSPGERATLSCRASQIISNNLHWYQQKPGQAPRLLIIYGLQSISGIPARFSGSRSGTEFTLTISSLQSEDFAVYYCQQSNNWPWTFGQGTKLEIKR
notes: M10-1275 series
With B5, the results for the Kd in test [1] and in test [2] were 10.8 pM and 29.6 pM, respectively.

B6: APE15171 (antibody, V domains shown)
VH: EVQLVQSGAEVKKPGATVKISCKVSGFNFKYSLIHWVQQAPGKGLEWMGWIDNEAGETEYAPGFQDRVTITADTSTDTAYMELSSLRSEDTAVYYCARGGPWFLSYWGQGTTVTVSS
VL: EIVMTQSPATLSVSPGERATLSCRASQIISNNLHWYQQKPGQAPRLLIIYGLQSISGIPARFSGSRSGTEFTLTISSLQSEDFAVYFCQQSNNFPYTFGQGTKLEIKR
notes: M10-1275 series
In the case of B6, the Kd came to 52.2 pM in test [1] and 276 pM in test [2].

B7: APE15058 (antibody, V domains shown)
VH: EVQLVQSGAEVKKPGATVKISCKVSGFNFKDSLMHWVQQAPGKGLEWMGWIDSENGETEYAPGFQDRVTITADTSTDTAYMELSSLRSEDTAVYYCARGGPWFLSYWGQGTTVTVSS
VL: EIVMTQSPATLSVSPGERATLSCRASQIISNNLHWYQQKPGQAPRLLIYYGLQSISGIPARFSGSRSGTEFTLTISSLQSEDFAVYFCQQSNNWPWTFGQGTKLEIKR
notes: M10-1275 series
As for B7, the values for the Kd in test [1] and in test [2] were 22.3 pM and 154 pM, respectively.

B8: APE15056 (antibody, V domains shown)
VH: EVQLVQSGAEVKKPGATVKISCKVSGFNFKDSLMHWVQQAPGKGLEWMGWIDSENGETEYAPGFQDRVTITADTSTDTAYMELSSLRSEDTAVYYCARGGPWFLSYWGQGTTVTVSS
VL: EIVMTQSPATLSVSPGERATLSCRASQIISNNLHWYQQKPGQAPRLLIIYGLQSISGIPARFSGSRSGTEFTLTISSLQSEDFAVYFCQQSNNFPWTFGQGTKLEIKR
notes: M10-1275 series
In the case of B8, the Kd in test [1] is 19.8 pM; in test [2], 122 pM.

B9: APE15138 (antibody, V domains shown)
VH: EVQLVQSGAEVKKPGATVKISCKVSGFNFKLSLMHWVQQAPGKGLEWMGWIDSENGETEYAPGFQDRVTITADTSTDTAYMELSSLRSEDTAVYYCARGGPWFLSYWGQGTTVTVSS
VL: EIVMTQSPATLSVSPGERATLSCRASQIISNNLHWYQQKPGQAPRLLIIYGLQSISGIPARFSGSRSGTEFTLTISSLQSEDFAVYYCQQSNNWPWTFGQGTKLEIKR
notes: M10-1275 series
In the case of B9, the Kd in test [1] stood at 16.3 pM; in test [2], 43.6 pM.

B10: APE15172 (antibody, V domains shown)
VH: EVQLVQSGAEVKKPGATVKISCKVSGFNFKYSLIHWVQQAPGKGLEWMGWIDNEAGETEYAPGFQDRVTITADTSTDTAYMELSSLRSEDTAVYYCARGGPWFLSYWGQGTTVTVSS
VL: EIVMTQSPATLSVSPGERATLSCRASQIISNNLHWYQQKPGQAPRLLIIYGLQSISGIPARFSGSRSGTEFTLTISSLQSEDFAVYFCQQSNNWPYTFGQGTKLEIKR
notes: M10-1275 series
As to B10, the Kd in test [1] came out at 27.1 pM; in test [2] it was 116 pM.

B11: APE15057 (antibody, V domains shown)
VH: EVQLVQSGAEVKKPGATVKISCKVSGFNFKDSLMHWVQQAPGKGLEWMGWIDSENGETEYAPGFQDRVTITADTSTDTAYMELSSLRSEDTAVYYCARGGPWFLSYWGQGTTVTVSS
VL: EIVMTQSPATLSVSPGERATLSCRASQIISNNLHWYQQKPGQAPRLLIYYGLQSISGIPARFSGSRSGTEFTLTISSLQSEDFAVYYCQQSNNWPWTFGQGTKLEIKR
notes: M10-1275 series
On to B11, for which the Kd turned out to be 24 pM in test [1] and 144 pM in test [2].

B12: APE15144 (antibody, V domains shown)
VH: EVQLVQSGAEVKKPGATVKISCKVSGFNFKLSLIHWVQQAPGKGLEWMGWIDNEAGETEYAPGFQDRVTITADTSTDTAYMELSSLRSEDTAVYYCARGGPWFLSYWGQGTTVTVSS
VL: EIVMTQSPATLSVSPGERATLSCRASQIISNNLHWYQQKPGQAPRLLIIYGLQSISGIPARFSGSRSGTEFTLTISSLQSEDFAVYYCQQSNNWPWTFGQGTKLEIKR
notes: M10-1275 series
As for B12, the Kd in test [1] is 11.6 pM; in test [2], 29.7 pM.

B13: APE15135 (antibody, V domains shown)
VH: EVQLVQSGAEVKKPGATVKISCKVSGFNFKDSLMHWVQQAPGKGLEWMGWIDNENGETEYAPGFQDRVTITADTSTDTAYMELSSLRSEDTAVYYCARGGPWFLSYWGQGTTVTVSS
VL: EIVMTQSPATLSVSPGERATLSCRASQIISNNLHWYQQKPGQAPRLLIIYGLQSISGIPARFSGSRSGTEFTLTISSLQSEDFAVYYCQQSNNWPWTFGQGTKLEIKR
notes: M10-1275 series
In the case of B13, the equilibrium dissociation constant (Kd) was 10.5 pM in test [1] and 28.2 pM in test [2].

B14: APE15143 (antibody, V domains shown)
VH: EVQLVQSGAEVKKPGATVKISCKVSGFNFKYSLMHWVQQAPGKGLEWMGWIDNEAGETEYAPGFQDRVTITADTSTDTAYMELSSLRSEDTAVYYCARGGPWFLSYWGQGTTVTVSS
VL: EIVMTQSPATLSVSPGERATLSCRASQIISNNLHWYQQKPGQAPRLLIIYGLQSISGIPARFSGSRSGTEFTLTISSLQSEDFAVYYCQQSNNWPWTFGQGTKLEIKR
notes: M10-1275 series
Regarding B14, the Kd in test [1] was 9.72 pM; in test [2] it was 25.1 pM.

B15: APE15168 (antibody, V domains shown)
VH: EVQLVQSGAEVKKPGATVKISCKVSGFNFKESLIHWVQQAPGKGLEWMGWIDNEAGETEYAPGFQDRVTITADTSTDTAYMELSSLRSEDTAVYYCARGGPWFLSYWGQGTTVTVSS
VL: EIVMTQSPATLSVSPGERATLSCRASQIISNNLHWYQQKPGQAPRLLIIYGLQSISGIPARFSGSRSGTEFTLTISSLQSEDFAVYFCQQSNNFPYTFGQGTKLEIKR
notes: M10-1275 series
In the case of B15, the dissociation constant Kd is 37.9 pM in test [1] and 324 pM in test [2].

B16: APE15137 (antibody, V domains shown)
VH: EVQLVQSGAEVKKPGATVKISCKVSGFNFKYSLMHWVQQAPGKGLEWMGWIDSENGETEYAPGFQDRVTITADTSTDTAYMELSSLRSEDTAVYYCARGGPWFLSYWGQGTTVTVSS
VL: EIVMTQSPATLSVSPGERATLSCRASQIISNNLHWYQQKPGQAPRLLIIYGLQSISGIPARFSGSRSGTEFTLTISSLQSEDFAVYYCQQSNNWPWTFGQGTKLEIKR
notes: M10-1275 series
Consider B16, for which the Kd was 17.4 pM in test [1] and 51.8 pM in test [2].

B17: APE15141 (antibody, V domains shown)
VH: EVQLVQSGAEVKKPGATVKISCKVSGFNFKESLMHWVQQAPGKGLEWMGWIDNEAGETEYAPGFQDRVTITADTSTDTAYMELSSLRSEDTAVYYCARGGPWFLSYWGQGTTVTVSS
VL: EIVMTQSPATLSVSPGERATLSCRASQIISNNLHWYQQKPGQAPRLLIIYGLQSISGIPARFSGSRSGTEFTLTISSLQSEDFAVYYCQQSNNWPWTFGQGTKLEIKR
notes: M10-1275 series
Take B17: the Kd in test [1] is 10.3 pM; in test [2], 22 pM.

B18: APE15139 (antibody, V domains shown)
VH: EVQLVQSGAEVKKPGATVKISCKVSGFNFKESLIHWVQQAPGKGLEWMGWIDVEAGETEYAPGFQDRVTITADTSTDTAYMELSSLRSEDTAVYYCARGGPWFLSYWGQGTTVTVSS
VL: EIVMTQSPATLSVSPGERATLSCRASQIISNNLHWYQQKPGQAPRLLIIYGLQSISGIPARFSGSRSGTEFTLTISSLQSEDFAVYYCQQSNNWPWTFGQGTKLEIKR
notes: M10-1275 series
Take B18: the values for the equilibrium dissociation constant (Kd) in test [1] and in test [2] were 9.23 pM and 35.2 pM, respectively.
